Experimental findings from US20250136696A1 (HARBOUR BIOMED SHANGHAI, published 2025) are described below.

Assay [1] addresses T1, human B7-H7 on the cell surface (human, UniProt Q9UM44 23-414).
T1 construct: whole, on cells; also called hB7-H7; hu B7-H7
T1 sequence (looked up): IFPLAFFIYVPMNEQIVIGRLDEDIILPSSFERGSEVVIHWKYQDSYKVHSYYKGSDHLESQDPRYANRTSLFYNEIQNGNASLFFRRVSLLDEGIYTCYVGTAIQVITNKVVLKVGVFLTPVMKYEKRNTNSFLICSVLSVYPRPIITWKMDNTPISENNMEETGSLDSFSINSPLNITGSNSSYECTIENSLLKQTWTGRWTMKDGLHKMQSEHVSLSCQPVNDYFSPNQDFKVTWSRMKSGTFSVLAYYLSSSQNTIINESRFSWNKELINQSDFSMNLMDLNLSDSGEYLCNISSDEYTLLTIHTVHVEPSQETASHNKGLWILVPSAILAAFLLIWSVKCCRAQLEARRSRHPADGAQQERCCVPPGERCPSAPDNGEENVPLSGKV
The assay can be described thus: flow cytometry on HEK-293/hB7-H7 cells after 0-14 days in 90% human serum at 37 C. The protocol: The cells were adjusted to a cell density of 1×10⁶ cells/mL, respectively. The cells were seeded in a 96-well V-bottom plate (Corning, #3894) at 100 μL/well, and the antibody to be tested at 2× final concentration with 3-fold concentration gradient dilution was then added at 100 μL/well. The cells were incubated at 4° C. for 2 hours in the dark. After the incubation, the cells were rinsed twice by adding pre-chilled PBS containing 2% BSA at 100 μL/well, and centrifuged at 500 g at 4° C. for 5 minutes, and the supernatant was discarded. […] The cells were washed twice by adding pre-chilled PBS containing 2% BSA at 100 μL/well, and centrifuged at 500 g at 4° C. for 5 minutes, and the supernatant was discarded. Finally, the cells were resuspended in pre-chilled PBS containing 2% BSA at 200 μL/well, and the fluorescence signal values were read using an ACEA Novocyte3000 flow cytometer.
(In general: Flow cytometry measures light scatter and fluorescence of single cells or particles in a stream.)

For assay [2], the target named is T2, Recombinant human B7H4 Fc chimera (R&D, 8870-B7-050) (human, UniProt Q7Z7D3 29-258).
T2 construct: Bought
T2 sequence (looked up): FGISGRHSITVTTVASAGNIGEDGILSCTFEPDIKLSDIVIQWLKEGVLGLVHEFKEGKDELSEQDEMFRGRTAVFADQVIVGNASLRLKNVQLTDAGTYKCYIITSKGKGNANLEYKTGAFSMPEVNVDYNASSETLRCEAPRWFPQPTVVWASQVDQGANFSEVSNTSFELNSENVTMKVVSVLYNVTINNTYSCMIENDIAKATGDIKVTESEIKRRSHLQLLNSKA
The assay can be described thus: ELISA on coated B7 family protein. The protocol:
B7 family proteins (see Table 7 for details) were respectively diluted to […] with PBS, added into a 96-well plate (Corning, #9018) at 100 μl/well, and incubated at 4° C. overnight. After the liquid was discarded, the plate was washed 3 times with a PBST buffer (pH 7.4, containing 0.05% tween-20), 250 μl of blocking solution containing 2% BSA was added, and the plate was incubated for 1 hour at 37° C. The blocking solution was discarded, the plate was washed 3 times with PBST buffer (pH 7.4, containing 0.05% Tween-20), the antigen-binding protein to be tested was diluted to 2 concentrations of 10 nM and 1 nM, 100 μl of the diluted antigen-binding protein was added to each well, and the plate was incubated for 1 hour at 37° C., with the isotype antibody as the control. After the plate was washed 3 times with PBST buffer (pH 7.4, containing 0.05% Tween-20), goat anti-human HRP secondary antibody (Invitrogen, #A18805) diluted 5000 times was added, and the plate was incubated at 37° C. for 1 hour in the dark. After the plate was washed 3 times with PBST buffer (pH 7.4, containing 0.05% tween-20), TMB (Biopanda, #TMB-S-003) was added at 100 μl/well, and the plate was placed at room temperature for about 30 minutes in the dark; and a stop solution (BBI life sciences, #E661006-0200) was added to each well at 50 μl/well to stop the reaction, and the absorbance at 450 nm (OD450) was determined in a microplate reader (PerkinElemer, #Enspire).

B1: PR004263 (antibody, human IgG1, kappa, L234A L235A)
heavy: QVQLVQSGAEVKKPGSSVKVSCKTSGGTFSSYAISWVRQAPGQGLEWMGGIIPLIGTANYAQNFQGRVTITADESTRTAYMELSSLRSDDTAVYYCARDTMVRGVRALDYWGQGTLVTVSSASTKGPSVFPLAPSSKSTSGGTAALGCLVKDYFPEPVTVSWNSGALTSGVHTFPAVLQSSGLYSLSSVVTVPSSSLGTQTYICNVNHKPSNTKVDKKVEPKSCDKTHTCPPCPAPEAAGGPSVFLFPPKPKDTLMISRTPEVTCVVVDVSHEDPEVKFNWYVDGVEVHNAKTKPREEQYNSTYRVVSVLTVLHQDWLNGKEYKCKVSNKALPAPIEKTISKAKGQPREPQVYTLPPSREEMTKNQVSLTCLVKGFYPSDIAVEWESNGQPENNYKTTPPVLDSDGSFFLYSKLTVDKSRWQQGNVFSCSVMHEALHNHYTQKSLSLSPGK
light: DIQLTQSPSFLSASVGDRVTITCRASQGISSYFAWYQQKPGKAPKLLIYAASTLQSGVPSRFSGSGSGTEFTLTISSLQPEDFATYYCQHLNRYPWTFGQGTKVEIKRTVAAPSVFIFPPSDEQLKSGTASVVCLLNNFYPREAKVQWKVDNALQSGNSQESVTEQDSKDSTYSLSSTLTLSKADYEKHKVYACEVTHQGLSSPVTKSFNRGEC
notes: Variant of PR003264; Human IgG1 with LALA mutation in Fc
Regarding B1, the “EC50 (read off the curve)” value in assay [1] was around 1 nM. In addition, in assay [2], the binding result was “no binding (tested: 10 nM)”.

B2: PR004260 (antibody, human IgG1, kappa, L234A L235A)
heavy: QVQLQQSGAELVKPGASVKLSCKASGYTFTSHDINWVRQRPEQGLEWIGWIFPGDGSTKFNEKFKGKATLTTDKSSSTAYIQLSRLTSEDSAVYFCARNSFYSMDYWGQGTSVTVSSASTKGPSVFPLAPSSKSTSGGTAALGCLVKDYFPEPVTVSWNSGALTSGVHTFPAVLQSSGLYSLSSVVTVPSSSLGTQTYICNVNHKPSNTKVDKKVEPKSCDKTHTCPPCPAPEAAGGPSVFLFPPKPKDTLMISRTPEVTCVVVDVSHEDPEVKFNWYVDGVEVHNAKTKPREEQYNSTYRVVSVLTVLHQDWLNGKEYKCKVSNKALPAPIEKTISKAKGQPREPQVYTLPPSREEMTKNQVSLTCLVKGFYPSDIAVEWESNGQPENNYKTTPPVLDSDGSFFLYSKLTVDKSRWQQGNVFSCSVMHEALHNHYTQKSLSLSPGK
light: DIVMSQSPSSLAVSAGEKVTMSCKSSQSLLNSRTRKNQLAWYQQKPGQSPKLLIYWASTRESGVPDRFTGSGSGTDFTLTISSVQAEDLAVYYCKQSYNLRTFGGGTKLEIKRTVAAPSVFIFPPSDEQLKSGTASVVCLLNNFYPREAKVQWKVDNALQSGNSQESVTEQDSKDSTYSLSSTLTLSKADYEKHKVYACEVTHQGLSSPVTKSFNRGEC
notes: Variant of PR003181; Human IgG1 with LALA mutation in Fc
Turning to B2, the binding result in assay [2] is given as “no binding (tested: 10 nM)”.

A word on the EC50 (read off the curve): it is the midpoint of the concentration-response curve. The low end stands for a more potent agent, the high end for a less potent agent.
